According to paper PMC11901735:

How the values were obtained:
[1] = target: GLP-1R of mouse pancreatic β-cells (mouse (endogenous in ddY mouse pancreas)) (UniProt O35659)
[2] = target: Recombinant human GLP-1R protein (human) (UniProt P43220); test: SPR; Biacore T200; recombinant human GLP-1R (0.5 μM) immobilized on a CM5 sensor chip; peptides injected at four-fold serial dilutions (0, 0.1-100 nM); n = 3; 1:1 interaction model
Recombinant human GLP-1R protein (human), sequence (P43220 24-463): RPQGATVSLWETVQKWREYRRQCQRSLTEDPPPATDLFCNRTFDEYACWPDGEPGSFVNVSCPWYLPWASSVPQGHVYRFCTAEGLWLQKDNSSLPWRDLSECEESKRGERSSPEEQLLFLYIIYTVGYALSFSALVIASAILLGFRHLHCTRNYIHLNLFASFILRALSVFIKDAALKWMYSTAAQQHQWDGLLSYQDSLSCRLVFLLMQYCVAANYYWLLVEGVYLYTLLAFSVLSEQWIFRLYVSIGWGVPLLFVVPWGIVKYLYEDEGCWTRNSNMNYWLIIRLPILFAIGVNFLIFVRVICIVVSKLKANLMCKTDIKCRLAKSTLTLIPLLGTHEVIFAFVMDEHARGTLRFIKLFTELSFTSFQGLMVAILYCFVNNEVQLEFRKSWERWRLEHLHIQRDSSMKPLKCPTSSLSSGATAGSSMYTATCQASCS

GLP-1R of mouse pancreatic β-cells (mouse (endogenous in ddY mouse pancreas)), sequence (O35659 22-463): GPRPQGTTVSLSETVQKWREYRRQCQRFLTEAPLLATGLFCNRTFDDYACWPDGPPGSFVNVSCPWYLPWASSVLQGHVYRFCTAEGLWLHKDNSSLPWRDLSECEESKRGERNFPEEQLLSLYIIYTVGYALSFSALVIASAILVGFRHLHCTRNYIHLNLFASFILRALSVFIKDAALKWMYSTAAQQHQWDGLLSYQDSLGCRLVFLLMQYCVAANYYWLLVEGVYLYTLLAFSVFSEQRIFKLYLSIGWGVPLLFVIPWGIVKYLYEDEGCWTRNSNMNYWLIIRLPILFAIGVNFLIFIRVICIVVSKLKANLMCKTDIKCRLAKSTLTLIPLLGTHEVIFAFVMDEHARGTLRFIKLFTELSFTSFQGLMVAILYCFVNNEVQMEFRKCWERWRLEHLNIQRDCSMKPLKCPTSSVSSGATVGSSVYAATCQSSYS

I-Ex-4, Ex-4-C40 labeled with IPM at the additional C-terminal Cys (peptide)
radioactivity in the pancreas 5-120 min after i.v. administration of [^125I]I-Ex-4 to mice (highest at 60 min) (% injected dose per gram tissue) [1]: 11.3 | Kd [2]: 28.1 nM
